# According to patent US20220228157A1, “GENE EDITING IN DIVERSE BACTERIA” (priority 2019, published 2022):
# B1: CspRecT: RecT SSAP (UniParc ID: UPI0001837D7F) from a phage of Collinsella stercoris (protein)
# chain: MNQIVKFTDDSGLAVQVTPDDVRRYICENATEKEVGLFLQLCQTQRLNPFVKDAYLVKYGGAPASMITSYQVFNRRACRDANYDGIKSGVVVLRDGDVVHKRGAACYKKAGEELIGGWAEVRFKDGRETAYAEVALDDYSTGKSNWAKMPGVMIEKCAKAAAWRLAFPDTFQGMYAAEEMDQAQQPEQVRAQAEQPVDLQPIRELFKPYCEHFGITPAEGMTAVCGAVGAEGMHSMTEQQARRARAWMEEEMAAPAVEAEYEVVDEGEVF
# modifications: Collinsella stercoris DSM 13279
# B2: Redβ: Redβ SSAP from Enterobacteria phage λ, SEQ ID NO: 474 (protein)
# chain: MSTALATLAGKLAERVGMDSVDPQELITTLRQTAFKCDASDAQFIALLIVANQYGLNPWTKEIYAFPDKQNGIVPVVGVDGWSRIINENQQFDGMDFEQDNESCTCRIYRKDRNHPICVTEWMDECRREPFKTREGREITGPWQSHPKRMLRHKAMIQCARLAFGFAGIYDKDEAERIVENTAYTAERQPERDITPVNDETMQEINTLLIALDKTWDDDLLPLCSQIFRRDIRASSELTQAEAVKALGFLKQKATEQKVAA
# modifications: Bacteriophage Lambda
# B3: PapRecT: SSAP from Pseudomonas aeruginosa, SEQ ID NO: 24, UniParc ID: UPI0001E9E6CB (protein, listed as Pseudomonas aeruginosa)
# chain: MGTALTPLLTKFATRYEMGTTPEEVANTLKQTCFKGQVNDSQMVALLIVADQYKLNPFTKELYAFPDKNNGIVPVVGVDGWARIINENPQFDGMEFSMDQQGTECTCKIYRKDRSHAISATEYMAECKRNTQPWQSHPRRMLRHKAMIQCARLAFGFAGIYDQDEAERIVERDVTPAEQYEDVSEAICLIKDSPTMEDLQAAFSNAWKAYKTKGARDQLTAAKDQRKKELLDAPIDVEFEETGDDRAA
# How the values were obtained:
# E. coli MG1655 = experiment: Single-cycle multiplex genome editing with oligo pools, read out by NGS; type: cell-based, Escherichia coli; details: for Average editing efficiency at all loci: 19 simultaneous edits
# Procedure: CspRecT was then tested at a variety of more complex genome editing tasks. For longer strings of consecutive mismatches, which are lower efficiency events, CspRecT was again about twice as efficient as Redβ. […] To further investigate the performance of CspRecT at complex, highly multiplexed genome editing tasks, a set of 20 oligos spaced evenly around the E. coli genome was designed, each of which incorporates a single-nucleotide synonymous mutation at a non-essential gene. Next, while expressing Redβ, PapRecT, and CspRecT separately from the corresponding pORTMAGE plasmid, a single cycle of genome editing was performed with equimolar pools of 1, 5, 10, 15, and 20 oligos and assayed editing efficiency at each locus by PCR amplification coupled to targeted next generation sequencing (NGS). […] For instance, when making 19 simultaneous edits (one oligo from the pool of 20 could not be read out due to inconsistencies in allelic amplification), CspRecT averaged 5.1% editing efficiency at all loci, whereas Redβ and PapRecT averaged only 0.40% and 0.43%. Importantly, despite keeping total oligo concentration fixed across all pools, aggregate editing efficiency increased as more oligos were present in each pool. For instance, when using CspRecT with a 19-oligo pool, aggregate editing efficiency was nearly 100%, implying that across the total recovered population of E. coli there averaged one edit per cell.
# To measure single locus editing, a recombineering cycle was run with an oligo that confers a single base pair non-coding mismatch in a non-essential gene. The allele was then amplified by PCR and editing efficiency was measured by NGS as described above. To test multiplex editing, the concentration of oligo was held fixed (10 μM in the final electroporation mixture), but the total number of oligos in the mixture was varied. Pools of oligos to test editing at 5, 10, 15, or 20 alleles simultaneously were designed so as to space the edits relatively evenly around the genome. The 5-oligo pool contained oligo #'s 3,7,11,15,17, the 10-oligo pool added oligo #'s 1,5,9,13,19, the 15-oligo pool added oligo #'s 4,8,12,16,18, and the final 20-oligo pool contained silent mismatch MAGE oligos.
# E. coli = experiment: lacZ recombineering assay (blue/white screening); type: cell-based, Escherichia coli; details: for Editing efficiency, 18-bp consecutive mismatches into lacZ / Editing efficiency, 30-bp consecutive mismatches into lacZ: wild type E. coli MG1655
# Procedure: Top individual SSAPs (SEQ ID NO: 157 and SEQ ID NO: 24, using Redβ as a control) were expressed in E. coli from a lambda pL promoter. The mutational profile of edits are shown in FIG. 5, including the efficiency of introducing 18-nucleotide (NT) and 30-NT mismatches. Efficiency was measured by disruption of LacZ, plating on X-gal, and counting the number of blue vs. white colonies. In contrast to FIG. 1A, a high over-performance by the SSAP (SEQ ID NO: 157) alone was observed when it was driven off of a more efficient promoter.
# To maximize the phylogenetic reach and applicability of these new tools, CspRecT was characterized, alongside Redβ and PapRecT, subcloned into the pORTMAGE plasmid system (FIGS. 10A-10B, Addgene accession: #120418). This plasmid contains a broad-host RSF1010 origin of replication, establishes tight regulation of protein expression with an m-toluic-acid inducible expression system, and disables MMR by transient overexpression of a dominant-negative mutant of E. coli MutL (MutL E32K) (Nyerges et al., Proc. Natl. Acad. Sci. U.S.A. 113, 2502-2507 (2016)), which makes it possible to establish high-efficiency editing without modification of the host genome. […] This pORTMAGE plasmid expressing CspRecT was referred to as pORTMAGE-Ec1 (Addgene).
# Oligos were designed to introduce I) premature STOP codons into lacZ for E. coli, K. pneumoniae, and C. freundii, or II) RpsL K43→R; GyrA T83→I; ParC S83→L; RpoB D521→V, or a premature STOP codon into nfxB for P. aeruginosa. Oligo-mediated recombineering was performed as described above on all bacterial strains. After recovery overnight, cells were plated at empirically-determined dilutions to a density of 200-500 colonies per plate. In the case of LacZ screening, plating was assayed on MacConkey agar plates or on X-Gal/IPTG LB^L agar plates in the case of K. pneumoniae. In the case of selective antibiotic screening, cultures were plated onto both selective and non-selective plates. Selective antibiotic concentrations used were the same as those described for the selective testing above, except that in P. aeruginosa 100 μg/ml STR and 1.5 μg/ml CIP were used unless otherwise noted. Variants that were resistant to multiple antibiotics were selected on LB^L agar plates that contained the combination of all corresponding antibiotics. Non-selective plates were antibiotic-free LB^L agar plates. In all cases, allelic-replacement frequencies were calculated by dividing the number of recombinant CFUs by the number of total CFUs. Plasmid maintenance was ensured by supplementing all media and agar plates with either KAN (50 μg/ml) or GEN (20 μg/ml). Minimum Inhibitory Concentration (MIC) Measurement in P. aeruginosa
# [1] = system: 90 bp oligos pre-coated with SSB; experiment: Oligonucleotide annealing and quenching in vitro; type: biochemical
# From the text: It was first whether two 90 bp oligos could anneal if they were pre-coated with SSB. SSBs was purified from E. coli (gram-negative), where most recombineering work has been performed, and L. lactis (gram-positive), a lactic acid bacterium phylogenetically distantly related to E. coli. […] It was next tested capacity of a phage RecT protein to overcome this SSB-mediated inhibition of annealing. Thus, Redβ, which is not broadly portable, but mediates efficient oligonucleotide annealing in E. coli, was purified. […] These preliminary results gave us an indication that while bacterial SSBs inhibit oligonucleotide annealing in vitro, RecTs overcome the inhibitory effect in an SSB-specific manner.
# Fluorescent (tolC-r.null.mut-3′FAM) and quenching (tolC-f.null.mut-5′IBFQ) oligos were ordered from Integrated DNA Technologies. Unless otherwise indicated, 50 nM of each oligo was incubated in 25 mM TRIS-HCl pH 7.4 with 1.0 μM Ec_SSB or Ll_SSB at 30° C. for 30 minutes. 100 μl of each oligo mixture were then combined into a 96-well clear-bottom black assay plate (Costar), incubated a further 60 minutes at 30° C., and annealing was tracked on a Synergy H4 microplate reader (BioTek) with fluorescence excitation set to 495 nm and emission set to 520 nm. After 60 minutes, 20 μl of a solution with or without 25 μM Redβ and containing 100 mM MgCl2 was added to achieve a final reaction concentration of 2.5 μM Redβ and 10 mM MgCl2. The annealing was then tracked over 10 hours in a the Synergy H4 microplate reader with the setting indicated above.
# L. rhamnosus = type: cell-based; details: L. rhamnosus
# Procedure: Finally, the model for RecT was used to establish recombineering in L. rhamnosus, a well-studied probiotic used to treat a variety of illnesses including diarrhea and bacterial vaginosis. Although the L. rhamnosus SSB and L. lactis SSB only have 47% identity, they share identical SSB C-terminal tail 7 amino acids. It was determined whether LrpRecT (which functions in L. lactis) is portable to L. rhamnosus, while the other RecT proteins would not be functional.
# [2] = wild-type E. coli MG1655, pORTMAGE plasmid
Molecule,Aggregate editing efficiency (E. coli MG1655; 19-oligo pool) [%],Average editing efficiency at all loci (E. coli MG1655) [%],"Editing efficiency relative to other SSAPs (E. coli; E. coli, lambda pL promoter)","Editing efficiency, 18-bp consecutive mismatches into lacZ (E. coli) [%]","Editing efficiency, 30-bp consecutive mismatches into lacZ (E. coli) [%]","Editing efficiency, average over single-base mismatches (E. coli; [2]) [%]","Editing efficiency, various single-base mismatches (E. coli; [2])",Ability to overcome SSB-mediated inhibition of annealing [1],Oligonucleotide incorporation (L. rhamnosus),Annealing kinetics in vitro [1]
B1,~100,5.1,about double the efficiency of Redβ or SSAP SEQ ID NO: 24,6,3,43,35-51%,–,–,–
B2,–,0.40,–,3,1,–,–,overcame the inhibitory effect of EcSSB but not L1SSB,negligible activity,–
B3,–,0.43,–,–,–,–,–,–,negligible activity,improved annealing kinetics in vitro
